B1: nozzle protein gp12 (natural protein, bacteriophage T7, UniProt P03747 1-794, looked up)
chain: MALISQSIKNLKGGISQQPDILRYPDQGSRQVNGWSSETEGLQKRPPLVFLNTLGDNGALGQAPYIHLINRDEHEQYYAVFTGSGIRVFDLSGNEKQVRYPNGSNYIKTANPRNDLRMVTVADYTFIVNRNVVAQKNTKSVNLPNYNPNQDGLINVRGGQYGRELIVHINGKDVAKYKIPDGSQPEHVNNTDAQWLAEELAKQMRTNLSDWTVNVGQGFIHVTAPSGQQIDSFTTKDGYADQLINPVTHYAQSFSKLPPNAPNGYMVKIVGDASKSADQYYVRYDAERKVWTETLGWNTEDQVLWETMPHALVRAADGNFDFKWLEWSPKSCGDVDTNPWPSFVGSSINDVFFFRNRLGFLSGENIILSRTAKYFNFYPASIANLSDDDPIDVAVSTNRIAILKYAVPFSEELLIWSDEAQFVLTASGTLTSKSVELNLTTQFDVQDRARPFGIGRNVYFASPRSSFTSIHRYYAVQDVSSVKNAEDITSHVPNYIPNGVFSICGSGTENFCSVLSHGDPSKIFMYKFLYLNEELRQQSWSHWDFGENVQVLACQSISSDMYVILRNEFNTFLARISFTKNAIDLQGEPYRAFMDMKIRYTIPSGTYNDDTFTTSIHIPTIYGANFGRGKITVLEPDGKITVFEQPTAGWNSDPWLRLSGNLEGRMVYIGFNINFVYEFSKFLIKQTADDGSTSTEDIGRLQLRRAWVNYENSGTFDIYVENQSSNWKYTMAGARLGSNTLRAGRLNLGTGQYRFPVVGNAKFNTVYILSDETTPLNIIGCGWEGNYLRRSSGI
notes: nozzle protein gp12 of bacteriophage T7, as it stands in the virion; Native virion protein; also called tail nozzle; source: T7 virions propagated in E. coli, purified (PEG precipitation, CsCl ultracentrifugation)
B2: portal protein gp8 (natural protein, bacteriophage T7, UniProt P03728 1-536, looked up)
chain: MAEKRTGLAEDGAKSVYERLKNDRAPYETRAQNCAQYTIPSLFPKDSDNASTDYQTPWQAVGARGLNNLASKLMLALFPMQTWMRLTISEYEAKQLLSDPDGLAKVDEGLSMVERIIMNYIESNSYRVTLFEALKQLVVAGNVLLYLPEPEGSNYNPMKLYRLSSYVVQRDAFGNVLQMVTRDQIAFGALPEDIRKAVEGQGGEKKADETIDVYTHIYLDEDSGEYLRYEEVEGMEVQGSDGTYPKEACPYIPIRMVRLDGESYGRSYIEEYLGDLRSLENLQEAIVKMSMISSKVIGLVNPAGITQPRRLTKAQTGDFVTGRPEDISFLQLEKQADFTVAKAVSDAIEARLSFAFMLNSAVQRTGERVTAEEIRYVASELEDTLGGVYSILSQELQLPLVRVLLKQLQATQQIPELPKEAVEPTISTGLEAIGRGQDLDKLERCVTAWAALAPMRDDPDINLAMIKLRIANAIGIDTSGILLTEEQKQQKMAQQSMQMGMDNGAAALAQGMAAQATASPEAMAAAADSVGLQPGI
notes: portal protein gp8 of bacteriophage T7, as it stands in the virion; Native virion protein; also called dodecameric portal; source: T7 virions propagated in E. coli, purified (PEG precipitation, CsCl ultracentrifugation); copies: 12
B3: fiber protein gp17 (natural protein, bacteriophage T7, UniProt P03748 1-553, looked up)
chain: MANVIKTVLTYQLDGSNRDFNIPFEYLARKFVVVTLIGVDRKVLTINTDYRFATRTTISLTKAWGPADGYTTIELRRVTSTTDRLVDFTDGSILRAYDLNVAQIQTMHVAEEARDLTTDTIGVNNDGHLDARGRRIVNLANAVDDRDAVPFGQLKTMNQNSWQARNEALQFRNEAETFRNQAEGFKNESSTNATNTKQWRDETKGFRDEAKRFKNTAGQYATSAGNSASAAHQSEVNAENSATASANSAHLAEQQADRAEREADKLENYNGLAGAIDKVDGTNVYWKGNIHANGRLYMTTNGFDCGQYQQFFGGVTNRYSVMEWGDENGWLMYVQRREWTTAIGGNIQLVVNGQIITQGGAMTGQLKLQNGHVLQLESASDKAHYILSKDGNRNNWYIGRGSDNNNDCTFHSYVHGTTLTLKQDYAVVNKHFHVGQAVVATDGNIQGTKWGGKWLDAYLRDSFVAKSKAWTQVWSGSAGGGVSVTVSQDLRFRNIWIKCANNSWNFFRTGPDGIYFIASDGGWLRFQIHSNGLGFKNIADSRSVPNAIMVENE
notes: tail fiber protein gp17 of bacteriophage T7, as it stands in the virion; Six trimeric fibers on the virion; also called tail fiber; source: T7 virions propagated in E. coli, purified (PEG precipitation, CsCl ultracentrifugation)
B4: core protein gp14 (natural protein, bacteriophage T7, UniProt P03724 1-196, looked up)
chain: MCWAAAIPIAISGAQAISGQNAQAKMIAAQTAAGRRQAMEIMRQTNIQNADLSLQARSKLEEASAELTSQNMQKVQAIGSIRAAIGESMLEGSSMDRIKRVTEGQFIREANMVTENYRRDYQAIFAQQLGGTQSAASQIDEIYKSEQKQKSKLQMVLDPLAIMGSSAASAYASGAFDSKSTTKAPIVAAKGTKTGR
notes: core protein gp14 of bacteriophage T7, 196 residues as printed; modelled residues 4-86 and 101-129 in mature T7, 25-143 in DNA-ejected T7; Eight copies resolved in the mature virion, six copies in the extended channel of DNA-ejected T7; source: T7 virions propagated in E. coli, purified (PEG precipitation, CsCl ultracentrifugation)

Columns and labels:
[1] = target: the molecule itself; assay: cryo-EM structure; DNA-ejected T7: purified mature T7 incubated with rough LPS (250 µg/mL) at 37°C for 3 h; entire particle asymmetric 8.2 Å; portal–tail complex 3.5 Å (six-fold)
[2] = target: the molecule itself; assay: cryo-EM structure; mature T7 virions, in situ; entire particle asymmetric 6.1 Å; local reconstructions of core complex 3 Å (four-fold), portal 2.5 Å (twelve-fold), portal–tail complex 2.7 Å (six-fold)
portal protein gp8 = target: B2; assay: as above; conditions: both partners purified
core protein gp15 = target: T1, core protein gp15 (bacteriophage T7, UniProt P03725 1-747); assay: as above; conditions: both partners purified
T1 construct: core protein gp15 of bacteriophage T7, as it stands in the mature virion; Eight-fold ring in the core of mature T7; source: T7 virions propagated in E. coli, purified (PEG precipitation, CsCl ultracentrifugation)
T1 sequence (looked up): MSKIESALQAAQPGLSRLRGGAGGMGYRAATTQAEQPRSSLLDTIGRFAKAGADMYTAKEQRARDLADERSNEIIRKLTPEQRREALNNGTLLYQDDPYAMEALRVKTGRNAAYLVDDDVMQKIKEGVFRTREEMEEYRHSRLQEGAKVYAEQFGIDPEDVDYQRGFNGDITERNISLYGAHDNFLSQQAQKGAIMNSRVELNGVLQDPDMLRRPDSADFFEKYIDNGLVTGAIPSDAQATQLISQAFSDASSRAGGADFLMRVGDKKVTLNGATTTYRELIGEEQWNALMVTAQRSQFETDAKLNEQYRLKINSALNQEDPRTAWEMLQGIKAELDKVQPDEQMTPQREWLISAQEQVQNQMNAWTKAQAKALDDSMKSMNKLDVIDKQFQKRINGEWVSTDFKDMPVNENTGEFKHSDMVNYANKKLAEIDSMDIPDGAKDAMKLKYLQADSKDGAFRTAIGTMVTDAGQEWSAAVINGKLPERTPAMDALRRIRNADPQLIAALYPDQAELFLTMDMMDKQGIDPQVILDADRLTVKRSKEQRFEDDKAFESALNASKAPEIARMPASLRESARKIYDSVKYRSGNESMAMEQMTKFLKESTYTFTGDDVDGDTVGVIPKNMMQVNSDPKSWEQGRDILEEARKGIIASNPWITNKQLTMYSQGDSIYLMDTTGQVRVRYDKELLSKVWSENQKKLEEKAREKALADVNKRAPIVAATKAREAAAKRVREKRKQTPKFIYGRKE

nozzle protein gp12 = target: B1; assay: cryo-EM structure; DNA-ejected T7: purified mature T7 incubated with rough LPS (250 µg/mL) at 37°C for 3 h; entire particle asymmetric 8.2 Å; portal–tail complex 3.5 Å (six-fold); conditions: both partners purified

| Binder | stoichiometry N [1] | stoichiometry N [2] | binding result (portal protein gp8) | binding result (core protein gp15) | binding result (nozzle protein gp12) |
| --- | --- | --- | --- | --- | --- |
| B1 | 6 | – | – | – | – |
| B2 | – | 12 | – | – | – |
| B3 | – | 3 | – | – | – |
| B4 | 6 | – | binds | binds | binds |
